These results are taken from publication doi:10.1101/2021.04.26.441501 (bioRxiv, 2021).

In this experiment the target is SARS-CoV-2 RBD (residues 319-514) with C-terminal hexahistidine tag (Severe acute respiratory syndrome …, UniProt P0DTC2). The experiment is described as follows: ELISA. On the technique in general: ELISA stands for enzyme-linked immunosorbent assay.

B1: SARS2-38 (murine IgG1 mAb) (antibody, V domains shown)
VH: QVQLKESGPGLVAPSQSLSITCTVSGFSLTRYGVHWVRQPPGKGLEWLGVIWADGSTYYNSALMSRLSISKDNSKSQVFLNMNSLQTDDTAKYYCARDGRGYDDYWGQGTTLTVSS
VL: QIVLTQSPAIMSASPGEKVTMTCSASSTVSFIYWYQQKPGSSPRLLIYDTSNPASGVPVRFSGSGCGTSYYLTISRMEAEDAATYYCQQWNTYPLTFGAGTKLELK
For B1, the binding result is “binds”.
